# From the supplement of paper PMC10567573
# B1: VPS39 (parent)
# chain: LRLENNHCHIEESEHVLKKAHKYS
# Variants of: B1
# Assay: protein stability index of a GFP-peptide fusion (GPS, HEK-293T) (PSI 1-6); higher = more stable
# Conditions: c terminus: a fixed tail appended
# 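Note: lentivirally expressed fusions sorted by FACS into six bins by GFP to DsRed ratio, PSI derived from sequencing read proportions per bin multiplied by bin number.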
row,Variant,protein stability index
1,LRLENNHCHIEESEHVAKKAHKYS,1.83
2,LRLENNHCHIEESEHVYKKAHKYS,2.55
3,LRLENNHCHIEESEHVFKKAHKYS,2.79
4,LRLENNHCHIEESEHVSKKAHKYS,2.84
5,LRLENNHCHIEESEHVRKKAHKYS,2.8
6,LRLENNHCHIEESEHVNKKAHKYS,2.48
7,LRLENNHCHIEESEHVQKKAHKYS,2.4
8,LRLENNHCHIEESEHVMKKAHKYS,1.56
9,LRLENNHCHIEESEHVCKKAHKYS,2.65
10,LRLENNHCHIEESEHVPKKAHKYS,2.14
11,LRLENNHCHIEESEHVEKKAHKYS,2.88
12,LRLENNHCHIEESEHVKKKAHKYS,2.27
13,LRLENNHCHIEESEHVVKKAHKYS,2.4
14,LRLENNHCHIEESEHVGKKAHKYS,2.84
15,LRLENNHCHIEESEHVDKKAHKYS,3.68
16,LRLENNHCHIEESEHVHKKAHKYS,1.55
17,LRLENNHCHIEESEHVTKKAHKYS,3.14
18,LRLENNHCHIEESEHVIKKAHKYS,2.35
19,LRLENNHCHIEESEHVWKKAHKYS,1.72
20,LRLENNHCHIEESEGVLKKAHKYS,1.89
21,LRLENNHCHIEESEEVLKKAHKYS,2.6
22,LRLENNHCHIEESEAVLKKAHKYS,2.87
23,LRLENNHCHIEESETVLKKAHKYS,2.71
24,LRLENNHCHIEESEFVLKKAHKYS,2.53

row,Variant,protein stability index
1,LRLENNHCHIEESEMVLKKAHKYS,3.02
2,LRLENNHCHIEESEIVLKKAHKYS,2.41
3,LRLENNHCHIEESEPVLKKAHKYS,2.34
4,LRLENNHCHIEESELVLKKAHKYS,2.1
5,LRLENNHCHIEESECVLKKAHKYS,2.18
6,LRLENNHCHIEESESVLKKAHKYS,2.64
7,LRLENNHCHIEESEWVLKKAHKYS,2.09
8,LRLENNHCHIEESERVLKKAHKYS,2.86
9,LRLENNHCHIEESEQVLKKAHKYS,1.98
10,LRLENNHCHIEESEDVLKKAHKYS,2.56
11,LRLENNHCHIEESEKVLKKAHKYS,2.74
12,LRLENNHCHIEESENVLKKAHKYS,3.07
13,LRLENNHCHIEESEVVLKKAHKYS,1.5
14,LRLENNHCHIEESEYVLKKAHKYS,2.41
15,LRLENNHCHIEESEHVLKSAHKYS,2.1
16,LRLENNHCHIEESEHVLKLAHKYS,1.52
17,LRLENNHCHIEESEHVLKHAHKYS,1.91
18,LRLENNHCHIEESEHVLKEAHKYS,2.45
19,LRLENNHCHIEESEHVLKTAHKYS,2.2
20,LRLENNHCHIEESEHVLKWAHKYS,1.34
21,LRLENNHCHIEESEHVLKFAHKYS,1.98
22,LRLENNHCHIEESEHVLKIAHKYS,2.01
23,LRLENNHCHIEESEHVLKCAHKYS,2.24
24,LRLENNHCHIEESEHVLKVAHKYS,2.4

row,Variant,protein stability index
1,LRLENNHCHIEESEHVLKPAHKYS,2.41
2,LRLENNHCHIEESEHVLKGAHKYS,2.21
3,LRLENNHCHIEESEHVLKYAHKYS,2.67
4,LRLENNHCHIEESEHVLKNAHKYS,2.39
5,LRLENNHCHIEESEHVLKAAHKYS,2.3
6,LRLENNHCHIEESEHVLKRAHKYS,2.37
7,LRLENNHCHIEESEHVLKMAHKYS,2.52
8,LRLENNHCHIEESEHVLKQAHKYS,2.51
9,LRLENNHCHIEESEHVLKDAHKYS,2.59
10,LRLENNHCHIEESEHVLKKAHFYS,1.84
11,LRLENNHCHIEESEHVLKKAHVYS,2.57
12,LRLENNHCHIEESEHVLKKAHAYS,2.48
13,LRLENNHCHIEESEHVLKKAHLYS,1.99
14,LRLENNHCHIEESEHVLKKAHNYS,2.44
15,LRLENNHCHIEESEHVLKKAHGYS,2.96
16,LRLENNHCHIEESEHVLKKAHQYS,2.12
17,LRLENNHCHIEESEHVLKKAHTYS,3.65
18,LRLENNHCHIEESEHVLKKAHPYS,2.79
19,LRLENNHCHIEESEHVLKKAHCYS,2.02
20,LRLENNHCHIEESEHVLKKAHEYS,2.4
21,LRLENNHCHIEESEHVLKKAHRYS,2.34
22,LRLENNHCHIEESEHVLKKAHDYS,3.15
23,LRLENNHCHIEESEHVLKKAHHYS,2.58
24,LRLENNHCHIEESEHVLKKAHIYS,1.65

row,Variant,protein stability index
1,LRLENNHCHIEESEHVLKKAHSYS,2.51
2,LRLENNHCHIEESEHVLKKAHMYS,1.62
3,LRLENNHCHIEESEHVLQKAHKYS,2.42
4,LRLENNHCHIEESEHVLGKAHKYS,2.08
5,LRLENNHCHIEESEHVLLKAHKYS,1.88
6,LRLENNHCHIEESEHVLPKAHKYS,1.85
7,LRLENNHCHIEESEHVLMKAHKYS,2.12
8,LRLENNHCHIEESEHVLAKAHKYS,2.42
9,LRLENNHCHIEESEHVLNKAHKYS,2.6
10,LRLENNHCHIEESEHVLVKAHKYS,2.54
11,LRLENNHCHIEESEHVLRKAHKYS,2.21
12,LRLENNHCHIEESEHVLYKAHKYS,2.39
13,LRLENNHCHIEESEHVLHKAHKYS,2.17
14,LRLENNHCHIEESEHVLSKAHKYS,1.91
15,LRLENNHCHIEESEHVLWKAHKYS,1.27
16,LRLENNHCHIEESEHVLDKAHKYS,2.31
17,LRLENNHCHIEESEHVLEKAHKYS,1.94
18,LRLENNHCHIEESEHVLTKAHKYS,1.87
19,LRLENNHCHIEESEHVLCKAHKYS,2.02
20,LRLENNHCHIEESEHVLFKAHKYS,2.09
21,LRLENNHCHIEESEHVLIKAHKYS,2.26
22,LRLENNHCHIEESEHVLKKLHKYS,1.71
23,LRLENNHCHIEESEHVLKKPHKYS,2.23
24,LRLENNHCHIEESEHVLKKRHKYS,2.11

row,Variant,protein stability index
1,LRLENNHCHIEESEHVLKKMHKYS,1.98
2,LRLENNHCHIEESEHVLKKSHKYS,2.19
3,LRLENNHCHIEESEHVLKKNHKYS,2.38
4,LRLENNHCHIEESEHVLKKEHKYS,3.06
5,LRLENNHCHIEESEHVLKKVHKYS,2.52
6,LRLENNHCHIEESEHVLKKIHKYS,1.61
7,LRLENNHCHIEESEHVLKKYHKYS,1.92
8,LRLENNHCHIEESEHVLKKGHKYS,2.73
9,LRLENNHCHIEESEHVLKKDHKYS,2.73
10,LRLENNHCHIEESEHVLKKHHKYS,2.3
11,LRLENNHCHIEESEHVLKKTHKYS,2.43
12,LRLENNHCHIEESEHVLKKWHKYS,2.25
13,LRLENNHCHIEESEHVLKKCHKYS,2.04
14,LRLENNHCHIEESEHVLKKQHKYS,1.45
15,LRLENNHCHIEESEHVLKKKHKYS,2.13
16,LRLENNHCHIEESEHVLKKFHKYS,2.24
17,LRLENNHCHIEEVEHVLKKAHKYS,2.76
18,LRLENNHCHIEEEEHVLKKAHKYS,2.26
19,LRLENNHCHIEEQEHVLKKAHKYS,1.82
20,LRLENNHCHIEEPEHVLKKAHKYS,2.63
21,LRLENNHCHIEEREHVLKKAHKYS,2.15
22,LRLENNHCHIEEKEHVLKKAHKYS,2.92
23,LRLENNHCHIEEGEHVLKKAHKYS,2.56
24,LRLENNHCHIEEMEHVLKKAHKYS,1.64

row,Variant,protein stability index
1,LRLENNHCHIEEHEHVLKKAHKYS,2.18
2,LRLENNHCHIEEWEHVLKKAHKYS,1.01
3,LRLENNHCHIEEYEHVLKKAHKYS,2.75
4,LRLENNHCHIEEDEHVLKKAHKYS,2.49
5,LRLENNHCHIEELEHVLKKAHKYS,1.95
6,LRLENNHCHIEECEHVLKKAHKYS,2.06
7,LRLENNHCHIEEAEHVLKKAHKYS,2.69
8,LRLENNHCHIEENEHVLKKAHKYS,2.12
9,LRLENNHCHIEEFEHVLKKAHKYS,1.73
10,LRLENNHCHIEETEHVLKKAHKYS,2.37
11,LRLENNHCHIEEIEHVLKKAHKYS,1.32
12,LRLENNHCHIEESEHVLKKADKYS,2.73
13,LRLENNHCHIEESEHVLKKAMKYS,1.81
14,LRLENNHCHIEESEHVLKKAYKYS,2.25
15,LRLENNHCHIEESEHVLKKAGKYS,2.5
16,LRLENNHCHIEESEHVLKKAVKYS,3.04
17,LRLENNHCHIEESEHVLKKASKYS,2.29
18,LRLENNHCHIEESEHVLKKAKKYS,2.4
19,LRLENNHCHIEESEHVLKKATKYS,2.27
20,LRLENNHCHIEESEHVLKKACKYS,2.63
21,LRLENNHCHIEESEHVLKKAIKYS,1.38
22,LRLENNHCHIEESEHVLKKAWKYS,2.12
23,LRLENNHCHIEESEHVLKKAPKYS,1.97
24,LRLENNHCHIEESEHVLKKAQKYS,2.62

row,Variant,protein stability index
1,LRLENNHCHIEESEHVLKKAAKYS,3.18
2,LRLENNHCHIEESEHVLKKALKYS,1.9
3,LRLENNHCHIEESEHVLKKAFKYS,2.52
4,LRLENNHCHIEESEHVLKKANKYS,2.68
5,LRLENNHCHIEESEHVLKKARKYS,2
6,LRLENNHCHIEESEHVLKKAEKYS,2.78
7,LRLENNHCHIEESAHVLKKAHKYS,2.38
8,LRLENNHCHIEESIHVLKKAHKYS,1.88
9,LRLENNHCHIEESGHVLKKAHKYS,2.56
10,LRLENNHCHIEESFHVLKKAHKYS,1.46
11,LRLENNHCHIEESRHVLKKAHKYS,2.06
12,LRLENNHCHIEESMHVLKKAHKYS,1.73
13,LRLENNHCHIEESNHVLKKAHKYS,2.31
14,LRLENNHCHIEESDHVLKKAHKYS,2.12
15,LRLENNHCHIEESKHVLKKAHKYS,2.29
16,LRLENNHCHIEESYHVLKKAHKYS,1.88
17,LRLENNHCHIEESQHVLKKAHKYS,2.1
18,LRLENNHCHIEESLHVLKKAHKYS,2.16
19,LRLENNHCHIEESTHVLKKAHKYS,1.78
20,LRLENNHCHIEESVHVLKKAHKYS,2.9
21,LRLENNHCHIEESHHVLKKAHKYS,2.33
22,LRLENNHCHIEESSHVLKKAHKYS,2.42
23,LRLENNHCHIEESPHVLKKAHKYS,2.4
24,LRLENNHCHIEESWHVLKKAHKYS,2.67

row,Variant,protein stability index
1,LRLENNHCHIEESCHVLKKAHKYS,1.37
2,LRLENNHCHIEESEHDLKKAHKYS,3.13
3,LRLENNHCHIEESEHPLKKAHKYS,3.07
4,LRLENNHCHIEESEHLLKKAHKYS,2.47
5,LRLENNHCHIEESEHYLKKAHKYS,1.9
6,LRLENNHCHIEESEHNLKKAHKYS,2.38
7,LRLENNHCHIEESEHHLKKAHKYS,2.02
8,LRLENNHCHIEESEHELKKAHKYS,2.83
9,LRLENNHCHIEESEHWLKKAHKYS,1.49
10,LRLENNHCHIEESEHALKKAHKYS,3.01
11,LRLENNHCHIEESEHFLKKAHKYS,3.08
12,LRLENNHCHIEESEHILKKAHKYS,2.29
13,LRLENNHCHIEESEHKLKKAHKYS,2.49
14,LRLENNHCHIEESEHCLKKAHKYS,2.1
15,LRLENNHCHIEESEHTLKKAHKYS,2.39
16,LRLENNHCHIEESEHGLKKAHKYS,2.62
17,LRLENNHCHIEESEHRLKKAHKYS,2.48
18,LRLENNHCHIEESEHMLKKAHKYS,1.97
19,LRLENNHCHIEESEHSLKKAHKYS,2.65
20,LRLENNHCHIEESEHQLKKAHKYS,1.39
